B1: T06 (structured_RNA)
RNA: GAGGAUGGCAGCGGAGAGGAAUGGUGUAGUGUAAGUCAAUUCUACUUUCGUUGCAGCCCACACCACUCUCC

Target: T7 RNA polymerase (UniProt P00573 1-883)
Assay: filter binding

Chain of T7 RNA polymerase (P00573 whole entry): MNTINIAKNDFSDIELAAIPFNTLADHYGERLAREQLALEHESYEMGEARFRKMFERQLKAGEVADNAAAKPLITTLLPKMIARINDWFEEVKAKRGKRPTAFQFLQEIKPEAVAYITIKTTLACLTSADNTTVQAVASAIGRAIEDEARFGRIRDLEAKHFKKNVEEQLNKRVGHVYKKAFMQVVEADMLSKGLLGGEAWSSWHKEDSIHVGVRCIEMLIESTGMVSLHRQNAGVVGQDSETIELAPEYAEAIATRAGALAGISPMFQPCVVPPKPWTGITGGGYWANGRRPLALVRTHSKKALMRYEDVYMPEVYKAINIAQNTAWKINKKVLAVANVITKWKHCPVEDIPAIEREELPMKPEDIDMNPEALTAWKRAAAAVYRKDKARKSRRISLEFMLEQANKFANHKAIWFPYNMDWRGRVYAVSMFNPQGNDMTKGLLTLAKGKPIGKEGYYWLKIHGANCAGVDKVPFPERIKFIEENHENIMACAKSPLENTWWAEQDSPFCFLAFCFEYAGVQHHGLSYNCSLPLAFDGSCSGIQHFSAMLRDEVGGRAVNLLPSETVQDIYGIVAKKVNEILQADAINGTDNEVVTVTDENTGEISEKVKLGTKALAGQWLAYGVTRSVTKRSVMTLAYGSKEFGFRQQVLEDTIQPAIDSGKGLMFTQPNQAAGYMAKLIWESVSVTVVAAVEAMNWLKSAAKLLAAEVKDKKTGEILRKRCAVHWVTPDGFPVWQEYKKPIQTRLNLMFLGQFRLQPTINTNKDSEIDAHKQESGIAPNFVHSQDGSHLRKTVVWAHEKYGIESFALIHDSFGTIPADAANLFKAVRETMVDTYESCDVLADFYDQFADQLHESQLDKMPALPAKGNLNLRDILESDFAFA

Binder	Kd
B1	8 ± 2.4 nM
GUGUAGUGUAAGUCAAUUCUACUUUCGUUGCAGCCCAC (structured_RNA) [T06-38]	10.5 ± 2.1 nM
GCGUAAGUCAAUUCCACUAUCAUUGCUGC (structured_RNA) [T230-29]	2.9 ± 0.9 nM

From article PMC3642155
